Measured values published in the RNAGym collection of RNA variant scans (doi:10.7554/elife.80360).

B1: HDV Ribozyme (parent)
chain: GGCCGGCAUGGUCCCAGCCUCCUCGCUGGCGCCGGCUGGGCAACAUUCCGAGGGGACCGUCCCCUCGGUAAUGGCGAAUGGGACCCA

Variants of: B1
Assay: self-cleavage, relative activity (ratio to wild type); higher = more cleavage; co-transcriptional

Going from U37A A78U to U37A A78C, the self-cleavage rises from 0.0369 to 0.0997.

First: C36A C84G
Second: C36G U72G
The self-cleavage of the first is higher: 0.208 for the first, 0.151 for the second.

First: C36A C63A
Second: C36A U46G
The self-cleavage of the first is higher: 0.237 for the first, 0.123 for the second.

Going from U37A G54A to U37A G54U, the self-cleavage rises from 0.104 to 0.245.

Compared with U37A U47G, C36G C61A is lower in self-cleavage: 0.222 for the first, 0.116 for the second.

Compared with C36G G52C, C36U A83U is higher in self-cleavage: 0.166 for the first, 0.408 for the second.

First: C36A C61G
Second: C36A G73C
The self-cleavage of the first is higher: 0.269 for the first, 0.178 for the second.

Compared with C36U G59A, U37A C44G is lower in self-cleavage: 0.704 for the first, 0.0898 for the second.

Going from C36U C58G to U37C A42C, the self-cleavage falls from 0.759 to 0.115.

First: C36A G54U
Second: C36A G54A
The self-cleavage of the first is higher: 0.229 for the first, 0.0804 for the second.

Going from C36G C66U to C36A C44A, the self-cleavage rises from 0.0997 to 0.19.

First: C36A C44U
Second: C36G C41U
The self-cleavage of the first is higher: 0.208 for the first, 0.199 for the second.

First: C36G C85U
Second: C36A C86A
The self-cleavage of the first is higher: 0.151 for the first, 0.134 for the second.

First: C36U G54A
Second: C36G U46G
The self-cleavage of the first is higher: 0.494 for the first, 0.0692 for the second.

Compared with C36G U37C, C36G U37A is higher in self-cleavage: 0.158 for the first, 0.446 for the second.

Going from C36U G53A to U37A C62A, the self-cleavage falls from 0.641 to 0.212.

Compared with U37A C62U, U37A G74U is higher in self-cleavage: 0.104 for the first, 0.208 for the second.

First: C36U A71G
Second: C36G U65C
The self-cleavage of the first is higher: 0.653 for the first, 0.18 for the second.

Compared with C36G A71U, C36G C64U is higher in self-cleavage: 0.095 for the first, 0.138 for the second.

Compared with C36G C64G, U37A G55U is lower in self-cleavage: 0.156 for the first, 0.0723 for the second.

Compared with C36A C75U, U37A C63U is higher in self-cleavage: 0.0963 for the first, 0.339 for the second.

Going from C36G A78U to C36G A78G, the self-cleavage rises from 0.0346 to 0.0639.

Compared with C36A A87G, U37C C66U is higher in self-cleavage: 0.125 for the first, 1.01 for the second.

First: U37A G76U
Second: C36A C62G
The self-cleavage of the first is higher: 0.469 for the first, 0.17 for the second.

Going from C36A G68A to C36G A43U, the self-cleavage falls from 0.293 to 0.0755.

First: C36G U47G
Second: U37A C41U
The self-cleavage of the first is lower: 0 for the first, 0.403 for the second.

First: U37A C66A
Second: U37A C66U
The self-cleavage of the first is lower: 0.29 for the first, 0.314 for the second.

Compared with C36U C62A, C36G A83C is lower in self-cleavage: 0.53 for the first, 0.0831 for the second.

First: C36G A83G
Second: C36A G39C
The self-cleavage of the first is higher: 0.151 for the first, 0.128 for the second.

Going from U37C A56C to C36A U69G, the self-cleavage falls from 1.11 to 0.161.

First: U37C A87G
Second: U37C A87C
The self-cleavage of the first is lower: 1.09 for the first, 1.21 for the second.

First: C36U A42C
Second: C36U G55A
The self-cleavage of the first is lower: 0.155 for the first, 0.612 for the second.

First: C36A C48G
Second: C36A C85U
The self-cleavage of the first is higher: 0.203 for the first, 0.158 for the second.

Compared with C36U G39U, C36U G39A is lower in self-cleavage: 0.245 for the first, 0 for the second.

Going from C36A A83C to U37A G38C, the self-cleavage rises from 0.0791 to 0.0923.

Compared with C36A A56C, C36G G38U is higher in self-cleavage: 0.131 for the first, 0.199 for the second.

Compared with C36U U46A, U37C A83U is higher in self-cleavage: 0.462 for the first, 0.534 for the second.

Going from U37A G53C to U37A C86A, the self-cleavage rises from 0.162 to 0.256.

Compared with U37A C86U, C36A G80U is lower in self-cleavage: 0.35 for the first, 0.0825 for the second.

Going from C36A G82A to C36A C57U, the self-cleavage rises from 0.071 to 0.102.

Compared with C36G C62U, U37C C44U is higher in self-cleavage: 0.246 for the first, 0.529 for the second.

Going from U37C C63U to C36U C63U, the self-cleavage falls from 1.11 to 0.904.

First: C36U G52U
Second: C36G G82A
The self-cleavage of the first is higher: 0.72 for the first, 0.07 for the second.

Going from C36G G82U to U37A G67C, the self-cleavage falls from 0.142 to 0.128.

Going from C36A G76A to C36G G67A, the self-cleavage falls from 0.266 to 0.157.

Going from C36G G67U to C36G G53C, the self-cleavage rises from 0.0361 to 0.158.

Compared with C36U C64U, U37C C84U is higher in self-cleavage: 0.628 for the first, 0.655 for the second.

First: C36G G73A
Second: C36G G73C
The self-cleavage of the first is lower: 0.0723 for the first, 0.185 for the second.

Going from C36G G39C to U37A G39U, the self-cleavage falls from 0.232 to 0.122.

Going from U37A G39A to C36U C75U, the self-cleavage rises from 0 to 0.244.

First: C36U C57U
Second: U37A U69G
The self-cleavage of the first is higher: 0.679 for the first, 0.369 for the second.

Going from C36U A56G to U37C G40A, the self-cleavage rises from 0.628 to 0.95.

First: C36A A77G
Second: U37A G82A
The self-cleavage of the first is lower: 0.0791 for the first, 0.138 for the second.

Going from U37A U72A to U37C A70U, the self-cleavage rises from 0.125 to 0.974.

Compared with U37A U65G, C36U U79C is lower in self-cleavage: 0.244 for the first, 0.201 for the second.

First: C36U U79A
Second: U37A C58G
The self-cleavage of the first is lower: 0.253 for the first, 0.369 for the second.

Compared with C36U A78G, U37A C49A is higher in self-cleavage: 0.128 for the first, 0.161 for the second.

Going from C36A G59C to U37A C57U, the self-cleavage rises from 0.0978 to 0.146.

Compared with U37A C57A, C36A U79C is lower in self-cleavage: 0.212 for the first, 0.086 for the second.

Going from U37C A43G to C36U G81U, the self-cleavage falls from 0.332 to 0.29.

First: C36U G81C
Second: U37A G52C
The self-cleavage of the first is lower: 0.12 for the first, 0.213 for the second.

Compared with C36G G59U, U37A C48A is higher in self-cleavage: 0.199 for the first, 0.208 for the second.

First: C36G A45G
Second: C36G A45C
The self-cleavage of the first is higher: 0.185 for the first, 0.0504 for the second.

First: C36U C48G
Second: C36G C48G
The self-cleavage of the first is higher: 0.831 for the first, 0 for the second.

First: U37A A71C
Second: U37A A71U
The self-cleavage of the first is lower: 0.19 for the first, 0.394 for the second.

Compared with C36U G67U, C36U G67A is higher in self-cleavage: 0.431 for the first, 0.712 for the second.

First: C36U U69G
Second: U37A C84G
The self-cleavage of the first is higher: 0.519 for the first, 0.151 for the second.

Going from C36G A77U to C36U G50U, the self-cleavage rises from 0.177 to 0.841.

First: U37A C85A
Second: C36A C64U
The self-cleavage of the first is higher: 0.332 for the first, 0.237 for the second.

Going from U37A C61A to C36G C63A, the self-cleavage rises from 0.138 to 0.269.

First: C36G C63G
Second: C36G G81C
The self-cleavage of the first is higher: 0.212 for the first, 0.0656 for the second.

First: C36A A51G
Second: C36A A51U
The self-cleavage of the first is higher: 0.269 for the first, 0.17 for the second.

Going from U37C C86A to C36A U47A, the self-cleavage falls from 0.974 to 0.196.

First: C36U C86G
Second: C36U C86A
The self-cleavage of the first is lower: 0.703 for the first, 0.747 for the second.

Going from C36U A51G to U37A A51G, the self-cleavage falls from 0.652 to 0.302.

First: C36U U72C
Second: C36U U72G
The self-cleavage of the first is lower: 0.102 for the first, 0.431 for the second.

First: U37C G38A
Second: U37A A42U
The self-cleavage of the first is lower: 0.0354 for the first, 0.131 for the second.

First: U37A A42C
Second: C36G A70U
The self-cleavage of the first is higher: 0.246 for the first, 0.119 for the second.

Going from C36A G50C to C36G G68A, the self-cleavage rises from 0.113 to 0.233.

Compared with C36G G68C, U37C A45U is higher in self-cleavage: 0.17 for the first, 0.639 for the second.

Compared with C36G C44A, C36G U69A is higher in self-cleavage: 0.128 for the first, 0.229 for the second.

Compared with C36G U69G, C36G U69C is higher in self-cleavage: 0.0554 for the first, 0.155 for the second.

Compared with U37C G39U, C36G U79G is lower in self-cleavage: 0.564 for the first, 0.0437 for the second.

In the case of C36U A43G, the self-cleavage is reported as 0.196.
